Assay results: US20230374148A1, “BINDING MOLECULES THAT MULTIMERISE CD45” (UCB BIOPHARMA SRL, priority 2020, published 2023)

System: M1 macrophages
Test: Caspase-3/7 induction, IncuCyte, M1
Assay type: cell-based, human
Conditions: over 6 days, BYbe 250-2 nM, Camptothecin, Staurosporine 5 μM
Procedure: Human PBMC derived from blood leukocyte platelet-apheresis cones (NHSBT Oxford) were banked as frozen aliquots. Prior to an assay being performed, 2 vials of frozen cells, each containing 5×10^7 cells in 1 ml, were thawed in a 37° C. water bath and then added to 50 ml complete media (RPMI 1640+2 mM GlutaMAX+1% Pen/Strep, all previous supplied by Invitrogen, +10% Fetal Bovine Serum (FBS), Sigma Aldrich). Cells were spun (500 g, 5 min, at RT) and re-suspended in 30 ml complete media to wash and spun again. Cells were resuspended in 20 ml MACS buffer (PBS, pH 7.2, 0.5% bovine serum albumin (BSA), and 2 mM EDTA, Sigma Aldrich) and counted on a ChemoMetec NucleoCounter NC-3000 to determine concentration and viability. PBMCs from one donor (UCB-Cones 802) was used in this assay. Monocyte isolation was performed using the Pan Monocyte Isolation Kit (Miltenyi Biotec, cat no. 130-096-537) and LS columns (Miltenyi Biotec, cat no 130-042-401) according to manufacturer's instructions. 100 μl of cells were removed and stored on ice to check monocyte purity post isolation. Isolated cells were stained with BV421 mouse anti-human CD14 (BD Biosciences, cat no. 563743) to check for purity of monocytes using FACS. M-CSF (Sigma Aldrich, cat no. SRP3110) and GM-CSF (R&D Systems, cat no. 215-GM/CF) were prepared at 100 μg/ml. Cells were prepared in M1 media (complete media+50 ng/ml GM-CSF) or M2 media (complete media+50 ng/ml M-CSF) at a concentration of 2.5×10^5 cells/ml. 200 μl cells were plated into two Corning 96 well Black polystyrene microplates (Sigma Aldrich) and incubated at 37° C., 5% CO2. Following a 3-day incubation at 37° C., 5% CO2, the plate was spun (500 g, 5 min, RT), buffer was aspirated, the cells were washed once with PBS and then resuspended in 200 μL of M1 media or M2 media. […] The caspase dye was measured with the green laser (350 ms) and the cytotox dye was measured with a red laser (650 ms). The green dye signal was analysed using Incucyte® Zoom2016B. […]

B1: 4133-6294 BYbe: anti-CD45 BYbe (Fab-scFv): 4133 Fab HC-G4S linker-6294 scFv heavy chain paired with 4133 light chain (antibody)
heavy: QEQLVESGGGLVQPEGSLTLTCTASGFSFSGNYYMCWVRQAPGKGLEWIGCLYTGSSGSTYYASWAKGRFTISKTSSTTVTLQMTSLTAADTATYFCARDLGYEIDGYGGLWGQGTLVTVSSGQPKAPSVFPLAPCCGDTPSSTVTLGCLVKGYLPEPVTVTWNSGTLTNGVRTFPSVRQSSGLYSLSSVVSVTSSSQPVTCNVAHPATNTKVDKTVAPSTCSKPGGGGSGGGGSEVQLVESGAELARPGASVKMSCKASGYTFTSYTMHWVKQRPGQCLEWIGYINPSSGYTEYNQKFKDKTTLTADKSSSTAYLQLSSLTSEDSAVYYCARVGDGFYPSWLAYWGQGTLVTVSSGGGGSGGGGSGGGGSGGGGSDIQMTQSPKFLLVSAGDRVTITCKASQSVRNDVAWYQQKPGQSPKLLIFYASKRYTGVPDRFTGSGYGTDFTFTISTVQAEDLAVYFCQQDYSSPTTFGCGTKLEIK
light: AQVLTQTPSPVSAVVGGTVSISCQASQSVYNNNNLSWYQQKPGQPPKLLIYDASKLASGVPSRFKGSGSGTQFTLTISGVQCDDAATYYCLGGYYSSGWYFAFGGGTKVVVKRTPVAPTVLIFPPAADQVATGTVTIVCVANKYFPDVTVTWEVDGTTQTTGIENSKTPQNSADCTYNLSSTLTLTSTQYNSHKEYTCKVTQGTTSVVQSFNRGDC
  levels of Caspase-3/7: in-line with NegCtrl BYbe-treated and untreated macrophages
